Data taken from patent publication US20240317834A1, “COMPOSITIONS AND METHODS FOR NEUROLOGICAL DISEASES” (CODA BIOTHERAPEUTICS, INC., priority 2020, published 2024).

Test system: Lenti-X 293T cells
Experiment: YFP fluorescence quenching anion reporter plate reader assay of engineered receptors stimulated with acetylcholine or a non-native ligand
Assay type: cell-based
How it was run: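 YFP quench was followed for about 1 min 43 s after ligand delivered in iodide-based ECS, pH 7.2. Values are end-of-read fluorescence (last 10 s) divided by the pre-ligand baseline (15 s). Cells were LX293T, transfected with receptor DNA a day before the assay.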

B1: CODA952: engineered chimeric LGIC receptor, Y140I in SEQ ID NO: 33 (protein)
chain: MRCSPGGVWLALAASLLHVSLQGEFQRKLYKELVKNYNPLERPVANDSQPLTVYFSLSLLQIMDVDEKNQVLTTNIWLQMSWTDHYLQWNVSEYPGVKTVRFPDGQIWKPDILLYNSADERFDATFHTNVLVNSSGHCQILPPGIFKSSCPMDLKNFPMDVQTCKLKFGSWSYGGWSLDLQMQEADISGYIPNGEWDLVGIPGKRSERFYECCKEPYPDVTFTVTMRRRMGYYLIQMYIPSLLIVILSWISFWINMDAAPARVGLGITTVLTMTTQSSGSRASLPKVSYVKAIDIWMAVCLLFVFSALLEYAAVNFVSRQHKELLRFRRKRRHHKSPMLNLFQEDEAGEGRFNFSAYGMGPACLQAKDGISVKGANNSNTTNPPPAPSKSPEEMRKLFIQRAKKIDKISRIGFPMAFLIFNMFYWIIYKIVRREDVHNQ
modifications: synthetic sequence of chimeric LGIC
1 nM CNL001, first column
  YFP fluorescence quenching using CNL001: 0.368%
1 nM CNL001, second column
  YFP fluorescence quenching using CNL001: −1.976%
3 nM brd
  YFP fluorescence quenching using TC-5619/Bradanicline: −2.45%
3 nM var, first column
  YFP fluorescence quenching using Varenicline: −22.522
3 nM var, second column
  YFP fluorescence quenching using Varenicline: −18.173
10 nM CNL001, first column
  YFP fluorescence quenching using CNL001: −3.923%
10 nM CNL001, second column
  YFP fluorescence quenching using CNL001: 4.348%
30 nM brd
  YFP fluorescence quenching using TC-5619/Bradanicline: 66.97%
30 nM fac
  YFP fluorescence quenching using Facinicline: −8.83
30 nM var, first column
  YFP fluorescence quenching using Varenicline: −15.306
30 nM var, second column
  YFP fluorescence quenching using Varenicline: −12.832
50 nM CNL001, first column
  YFP fluorescence quenching using CNL001: 74.107%
50 nM CNL001, second column
  YFP fluorescence quenching using CNL001: 75.866%
50 nM abt
  YFP fluorescence quenching using ABT-126: −12.34%
100 nM CNL001, first column
  YFP fluorescence quenching using CNL001: 80.323%
100 nM CNL001, second column
  YFP fluorescence quenching using CNL001: 81.996%
100 nM CNL002
  YFP fluorescence quenching using CNL002: 32.58%
100 nM abt
  YFP fluorescence quenching using ABT-126: −11.57%
100 nM azd0328
  YFP fluorescence quenching using AZD-0328: −12.96%
300 nM abt
  YFP fluorescence quenching using ABT-126: −5.21%
300 nM azd0328
  YFP fluorescence quenching using AZD-0328: −13.21%
300 nM brd
  YFP fluorescence quenching using TC-5619/Bradanicline: 78.48%
300 nM fac
  YFP fluorescence quenching using Facinicline: 51.6
300 nM var, first column
  YFP fluorescence quenching using Varenicline: −14.671
300 nM var, second column
  YFP fluorescence quenching using Varenicline: −17.016
500 nM var, first column
  YFP fluorescence quenching using Varenicline: −16.713
500 nM var, second column
  YFP fluorescence quenching using Varenicline: −18.893
1 uM CNL001, first column
  YFP fluorescence quenching using CNL001: 83.489%
1 uM CNL001, second column
  YFP fluorescence quenching using CNL001: 82.208%
1 uM CNL002
  YFP fluorescence quenching using CNL002: 69.08%
1 uM abt
  YFP fluorescence quenching using ABT-126: 3.93%
1 uM tc6987
  YFP fluorescence quenching using TC-6987: 6.03
1 uM var, first column
  YFP fluorescence quenching using Varenicline: −15.847
1 uM var, second column
  YFP fluorescence quenching using Varenicline: −16.236
10 uM tc6987
  YFP fluorescence quenching using TC-6987: 2.25
30 uM CNL002
  YFP fluorescence quenching using CNL002: 73.28%
30 uM azd0328
  YFP fluorescence quenching using AZD-0328: 68.5%
30 uM fac
  YFP fluorescence quenching using Facinicline: 71.01
500 uM tc6987
  YFP fluorescence quenching using TC-6987: −0.24
TC-6683 30 nM
  percent quench of YFP fluorescence, 30 nM TC-6683: −27.7%
TC-6683 300 nM
  percent quench of YFP fluorescence, 300 nM TC-6683: −26.87%
TC-6683 3 uM
  percent quench of YFP fluorescence, 3 uM TC-6683: −31.2%
TC-6683 30 uM
  percent quench of YFP fluorescence, 30 uM TC-6683: −33.12%
TC-6683 100 uM
  percent quench of YFP fluorescence, 100 uM TC-6683: −24.67%
Acetylcholine 10 uM
  percent quench of YFP fluorescence, 10 uM ach: −1.97%
Acetylcholine 100 uM
  percent quench of YFP fluorescence, 100 uM ach: 2.79%
Acetylcholine 1 mM
  percent quench of YFP fluorescence, 1 mM ach: 58.81%
Acetylcholine 3 mM
  percent quench of YFP fluorescence, 3 mM ach: 66.9%
